Blank lines part the entries; values can stand above or below the molecule they belong to.
Tests used:
[1] = target: full-length human ARC (ARC_(1-396)) (human) (UniProt Q7LC44); test: SEC-MALS
ARC_(131-396) = target: T1, ARC_(131-396) (human, UniProt Q7LC44 131-396); test: SAXS
T1 sequence (looked up): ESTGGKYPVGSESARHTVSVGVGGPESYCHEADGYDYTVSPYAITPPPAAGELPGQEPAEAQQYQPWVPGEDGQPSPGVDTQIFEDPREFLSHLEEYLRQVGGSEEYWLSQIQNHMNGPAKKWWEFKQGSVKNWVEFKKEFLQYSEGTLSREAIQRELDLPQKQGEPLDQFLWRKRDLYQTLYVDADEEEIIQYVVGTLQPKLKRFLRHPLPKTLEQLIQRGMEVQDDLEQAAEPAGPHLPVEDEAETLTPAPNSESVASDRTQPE

ARC_(206-361) = target: T2, ARC_(206-361) (human, UniProt Q7LC44 206-361); test: SAXS
T2 sequence (looked up): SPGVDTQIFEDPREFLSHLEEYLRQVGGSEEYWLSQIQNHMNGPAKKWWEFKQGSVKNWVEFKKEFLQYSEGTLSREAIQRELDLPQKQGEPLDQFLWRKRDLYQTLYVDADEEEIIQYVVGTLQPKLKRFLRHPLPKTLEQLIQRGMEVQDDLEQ

ARC_(207-277) [2] = target: T3, ARC_(207-277) (human, UniProt Q7LC44 207-277); test: SAXS
T3 sequence (looked up): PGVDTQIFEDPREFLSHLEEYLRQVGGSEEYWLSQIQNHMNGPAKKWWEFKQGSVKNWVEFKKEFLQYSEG

ARC_(206-396) = target: T4, ARC_(206-396) (human, UniProt Q7LC44 206-396); test: SAXS
T4 sequence (looked up): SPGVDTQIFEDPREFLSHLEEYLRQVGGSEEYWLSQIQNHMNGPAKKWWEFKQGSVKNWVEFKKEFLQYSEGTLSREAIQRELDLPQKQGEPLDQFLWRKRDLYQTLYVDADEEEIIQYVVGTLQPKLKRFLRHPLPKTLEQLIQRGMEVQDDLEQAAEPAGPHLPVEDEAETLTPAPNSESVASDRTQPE

ARC_(170-396) = target: T5, ARC_(170-396) (human, UniProt Q7LC44 170-396); test: SAXS
T5 sequence (looked up): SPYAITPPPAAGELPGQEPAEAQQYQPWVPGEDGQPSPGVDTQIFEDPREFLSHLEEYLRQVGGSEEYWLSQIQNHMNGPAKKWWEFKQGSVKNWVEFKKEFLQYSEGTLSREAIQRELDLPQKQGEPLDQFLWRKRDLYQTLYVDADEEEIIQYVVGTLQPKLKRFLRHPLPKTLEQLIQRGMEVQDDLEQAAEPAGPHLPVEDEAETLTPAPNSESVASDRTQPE

ARC_(207-277) [3] = target: T3, ARC_(207-277); test: synchrotron radiation circular dichroism

stoichiometry N [1]: 2
Molecule: full-length human ARC (ARC_(1-396)) (from UniProt Q7LC44 1-396) (natural protein)

binding result (ARC_(131-396)): binds
binding result (ARC_(206-361)): binds
binding result (ARC_(207-277) [2]): binds
binding result (ARC_(206-396)): binds
binding result (ARC_(170-396)): binds
B3: GKAP peptide (TSPKFRSR) (peptide)
peptide: Ac-TSPKFRSR-NH2

The next lines start with the molecule.

B1: WAVE1 peptide (RTPVFVSP) (peptide)
peptide: Ac-RTPVFVSP-NH2
binding result (ARC_(131-396)): binds
binding result (ARC_(206-361)): binds
binding result (ARC_(207-277) [2]): binds
binding result (ARC_(206-396)): binds
binding result (ARC_(170-396)): binds

B2: Stargazin peptide (RIPSYRYR) (peptide)
peptide: Ac-RIPSYRYR-NH2
binding result (ARC_(131-396)): binds
binding result (ARC_(206-361)): binds
binding result (ARC_(206-396)): binds
binding result (ARC_(170-396)): binds
binding result (ARC_(207-277) [3]): binds

From paper doi:10.1101/332015 (bioRxiv, 2018)
